Experimental data reported in publication PMC11825685 (Nature Communications, 2024).

Key:
[1] = target: Mycobacterium tuberculosis (Mtb) PhoP, phosphorylated (Mycobacterium tuberculosis) (UniProt P71814); experiment: cryo-EM structure
Mtb RNAP β subunit = target: T1, Mtb RNAP β subunit (Mycobacterium tuberculosis, UniProt P9WGY9 1-1178); experiment: cryo-EM structure
T1 sequence: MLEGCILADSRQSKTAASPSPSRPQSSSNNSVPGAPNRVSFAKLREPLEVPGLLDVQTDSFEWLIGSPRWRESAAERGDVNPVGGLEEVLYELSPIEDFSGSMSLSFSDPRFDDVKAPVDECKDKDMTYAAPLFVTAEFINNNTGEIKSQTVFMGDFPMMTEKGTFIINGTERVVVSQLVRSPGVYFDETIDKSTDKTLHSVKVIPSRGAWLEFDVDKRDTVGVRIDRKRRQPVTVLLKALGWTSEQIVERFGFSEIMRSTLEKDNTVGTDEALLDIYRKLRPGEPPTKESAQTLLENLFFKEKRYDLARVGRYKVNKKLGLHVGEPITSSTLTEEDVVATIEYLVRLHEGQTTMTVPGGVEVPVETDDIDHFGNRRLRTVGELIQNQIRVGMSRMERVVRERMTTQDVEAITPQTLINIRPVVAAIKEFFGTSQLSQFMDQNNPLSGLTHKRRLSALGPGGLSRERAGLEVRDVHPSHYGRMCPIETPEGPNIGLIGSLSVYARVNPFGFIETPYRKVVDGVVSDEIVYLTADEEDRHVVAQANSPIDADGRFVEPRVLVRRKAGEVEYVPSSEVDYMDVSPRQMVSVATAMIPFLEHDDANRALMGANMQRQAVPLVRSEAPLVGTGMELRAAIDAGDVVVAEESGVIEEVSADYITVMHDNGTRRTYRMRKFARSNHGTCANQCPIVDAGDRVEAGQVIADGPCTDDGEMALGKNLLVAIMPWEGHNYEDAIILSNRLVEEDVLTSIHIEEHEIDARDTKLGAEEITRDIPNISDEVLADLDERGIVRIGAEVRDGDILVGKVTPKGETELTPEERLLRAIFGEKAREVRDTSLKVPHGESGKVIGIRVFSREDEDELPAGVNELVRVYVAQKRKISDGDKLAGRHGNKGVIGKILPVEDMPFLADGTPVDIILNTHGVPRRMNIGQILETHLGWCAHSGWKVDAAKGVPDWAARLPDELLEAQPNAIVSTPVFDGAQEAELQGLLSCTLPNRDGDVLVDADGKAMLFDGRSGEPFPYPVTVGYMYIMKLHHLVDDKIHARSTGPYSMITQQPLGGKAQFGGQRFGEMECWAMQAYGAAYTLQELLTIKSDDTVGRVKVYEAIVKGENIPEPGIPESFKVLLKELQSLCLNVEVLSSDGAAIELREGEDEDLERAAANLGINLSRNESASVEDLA

Mtb RNAP σ^A = target: T2, Mtb RNAP σ^A (Mycobacterium tuberculosis, UniProt P9WGI1); experiment: cryo-EM structure
T2 sequence: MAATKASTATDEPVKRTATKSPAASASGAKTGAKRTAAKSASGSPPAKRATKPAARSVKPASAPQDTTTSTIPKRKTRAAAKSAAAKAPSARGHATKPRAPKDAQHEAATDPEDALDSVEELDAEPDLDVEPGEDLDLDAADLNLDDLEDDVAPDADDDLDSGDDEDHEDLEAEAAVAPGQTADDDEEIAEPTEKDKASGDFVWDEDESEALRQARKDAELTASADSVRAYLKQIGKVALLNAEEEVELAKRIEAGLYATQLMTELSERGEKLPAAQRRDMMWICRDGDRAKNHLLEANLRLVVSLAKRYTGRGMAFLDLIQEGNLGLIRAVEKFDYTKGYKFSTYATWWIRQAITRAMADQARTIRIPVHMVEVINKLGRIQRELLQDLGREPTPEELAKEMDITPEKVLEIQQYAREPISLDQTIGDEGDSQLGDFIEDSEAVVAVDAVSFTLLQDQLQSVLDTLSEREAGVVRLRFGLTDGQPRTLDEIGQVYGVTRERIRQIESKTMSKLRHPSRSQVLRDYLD

Mtb RNAP α subunit = target: T3, Mtb RNAP α subunit (Mycobacterium tuberculosis, UniProt P9WGZ1); experiment: cryo-EM structure
T3 sequence: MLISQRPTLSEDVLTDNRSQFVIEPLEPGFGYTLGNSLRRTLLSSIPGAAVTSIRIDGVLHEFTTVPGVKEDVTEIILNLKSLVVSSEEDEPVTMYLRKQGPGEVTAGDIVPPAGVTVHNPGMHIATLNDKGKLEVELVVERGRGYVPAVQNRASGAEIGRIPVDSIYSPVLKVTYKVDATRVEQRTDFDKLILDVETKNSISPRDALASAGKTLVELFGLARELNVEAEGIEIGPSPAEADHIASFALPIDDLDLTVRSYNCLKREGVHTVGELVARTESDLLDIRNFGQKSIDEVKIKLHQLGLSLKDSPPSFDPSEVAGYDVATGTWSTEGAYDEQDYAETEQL

cryo-EM structure = target: the molecule itself; experiment: cryo-EM structure
[2] = target: RNAP holoenzyme (sigma A);GlnR (Mycobacterium …, UniProt P9WGZ1;P9WGY9;P9WGY7;P9WGY5;P9WGI1;O53830 1-347;1-1178;1-1316;1-110;1-528;1-255, |); experiment: EMSA

## Mycobacterium tuberculosis (Mtb) PhoP, phosphorylated (from UniProt P71814 1-247) (natural protein)
[1]
  stoichiometry N: 2

B1: Mtb GlnR (natural protein)
chain: MLELLLLTSELYPDPVLPALSLLPHTVRTAPAEASSLLEAGNADAVLVDARNDLSSGRGLCRLLSSTGRSIPVLAVVSEGGLVAVSADWGLDEILLLSTGPAEIDARLRLVVGRRGDLADQESLGKVSLGELVIDEGTYTARLRGRPLDLTYKEFELLKYLAQHAGRVFTRAQLLHEVWGYDFFGGTRTVDVHVRRLRAKLGPEHEALIGTVRNVGYKAVRPARGRPPAADPDDEDADPGRDGMQEPLVDPLRSQ
Mtb RNAP β subunit
  binding result: binds
Mtb RNAP σ^A
  binding result: binds
Mtb RNAP α subunit
  binding result: binds
cryo-EM structure
  binding result: binds

B2: phoU promoter (mango-fused) (dsDNA)
DNA 1: ACCTCGAACACTCGTCGCCCAGAGTTCACCTTGGAGCCAGGGACGGTTCATTTGGGGTGCCGGAAACGGACGCGTACAGGCCGGAACGTGTAAGCGTGGGGGCACGGCGGGGGGCGCGAAGCCGGCACGTACGAAGGAAGGATTGGTATGTGGTATATTCGTACGTGCC
DNA 2: GGCACGTACGAATATACCACATACCAATCCTTCCTTCGTACGTGCCGGCTTCGCGCCCCCCGCCGTGCCCCCACGCTTACACGTTCCGGCCTGTACGCGTCCGTTTCCGGCACCCCAAATGAACCGTCCCTGGCTCCAAGGTGAACTCTGGGCGACGAGTGTTCGAGGT
[2]
  binding result: no binding
